{
  "source": "paper PMC3285612",
  "key": {"[1]": {"target": "recombinant Simukunin (rSV-66) (Simulium vittatum) (UniProt B5M0W4)", "sequence (B5M0W4 20-102)": "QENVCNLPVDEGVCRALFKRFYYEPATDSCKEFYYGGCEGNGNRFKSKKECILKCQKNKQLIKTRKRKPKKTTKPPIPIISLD", "assay": "SPR; kinetics: rSimukunin immobilised on a CM5 chip by amine coupling (475.3 RU); FXa 3.1-50 nM or elastase 0.45-3.75 nM injected for 180 s at 30 µl/minute, 25°C; HBS-P (10 mM Hepes pH 7.4, 150 mM NaCl, 0.005% P20); global fit to a 1:1 Langmuir model"}, "thrombin [2]": {"target": "thrombin (UniProt P00734)", "details": "cited from earlier work"}, "[3]": {"target": "Factor Xa (FXa) (Homo sapiens) (UniProt P00742)", "sequence (P00742 41-179, chain 1 of 2)": "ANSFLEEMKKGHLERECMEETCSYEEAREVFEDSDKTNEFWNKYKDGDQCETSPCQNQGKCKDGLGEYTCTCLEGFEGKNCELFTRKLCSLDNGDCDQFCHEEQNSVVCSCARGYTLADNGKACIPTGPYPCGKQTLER", "sequence (P00742 235-488, chain 2 of 2)": "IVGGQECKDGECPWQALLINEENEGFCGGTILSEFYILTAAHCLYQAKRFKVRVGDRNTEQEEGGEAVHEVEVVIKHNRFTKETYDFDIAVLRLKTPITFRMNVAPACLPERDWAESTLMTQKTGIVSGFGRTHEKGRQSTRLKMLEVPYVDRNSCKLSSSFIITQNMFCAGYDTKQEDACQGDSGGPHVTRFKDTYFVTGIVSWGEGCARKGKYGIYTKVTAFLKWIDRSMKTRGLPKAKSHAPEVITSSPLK", "details": "cited from earlier work"}, "Factor X (Homo sapiens)": {"target": "Factor X (Homo sapiens) (UniProt P00742)", "sequence (P00742 41-179)": "as the sequence (P00742 41-179, chain 1 of 2) above", "details": "cited from earlier work"}, "Factor Xa (Homo sapiens)": {"target": "Factor Xa (Homo sapiens) (UniProt P00742)", "sequence (P00742 235-488)": "as the sequence (P00742 235-488, chain 2 of 2) above", "details": "cited from earlier work"}, "[4]": {"target": "Factor X (FX) (Homo sapiens) (UniProt P00742)", "sequence (P00742 41-179, chain 1 of 2)": "as the sequence (P00742 41-179, chain 1 of 2) above", "sequence (P00742 183-488, chain 2 of 2)": "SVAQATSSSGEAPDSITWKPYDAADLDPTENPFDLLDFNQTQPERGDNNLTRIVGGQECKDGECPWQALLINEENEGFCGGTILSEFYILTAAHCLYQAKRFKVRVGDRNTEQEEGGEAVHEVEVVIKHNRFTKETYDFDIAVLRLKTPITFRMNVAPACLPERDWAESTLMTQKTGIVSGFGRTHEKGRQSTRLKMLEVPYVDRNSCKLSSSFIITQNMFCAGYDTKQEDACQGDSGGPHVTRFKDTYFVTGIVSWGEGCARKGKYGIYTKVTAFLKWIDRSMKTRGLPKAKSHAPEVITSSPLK", "details": "cited from earlier work"}, "thrombin [5]": {"target": "thrombin (UniProt P00734)", "details": "cited from earlier work", "remark": "listed apart in the source"}},
  "note": "Like-named read-outs stand apart in the source and are kept apart here.",
  "data": [
    {"substance": "activated coagulation factor X (FXa), human (enzyme)", "values": [
      {"measurement": "Kd", "setting": "[1]", "result": 3.07, "unit": "nM"},
      {"measurement": "koff", "setting": "[1]", "result": 0.000303, "unit": "s⁻¹"},
      {"measurement": "kon", "setting": "[1]", "result": 98700, "unit": "M⁻¹ s⁻¹"}
    ]},
    {"substance": "amblin (from UniProt Q5VJG2)", "values": [
      {"measurement": "Ki", "setting": "thrombin [2]", "result": 20, "unit": "nM"}
    ]},
    {"substance": "ixolaris (from UniProt Q964Q0)", "values": [
      {"measurement": "Kd", "setting": "[3]", "result": 0.25, "unit": "nM"},
      {"measurement": "Kd", "setting": "Factor X (Homo sapiens)", "result": 0.67, "unit": "nM"},
      {"measurement": "Kd", "setting": "Factor Xa (Homo sapiens)", "result": 0.25, "unit": "nM"},
      {"measurement": "Kd", "setting": "[4]", "result": 0.67, "unit": "nM"}
    ]},
    {"substance": "ornithodorin (from UniProt P56409)", "values": [
      {"measurement": "Ki", "setting": "thrombin [5]", "result": 1, "unit": "pM"}
    ]}
  ]
}
